Target: T1, cJun bZIP (human, UniProt P05412 252-308, limits assumed)
T1 construct: Purified from a His-SUMO fusion with the tag cleaved off; also called c-Jun bZIP domain; 60 amino acid c-Jun bZIP construct
T1 chain: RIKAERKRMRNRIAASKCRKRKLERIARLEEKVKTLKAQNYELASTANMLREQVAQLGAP
Experiment: ITC, antagonist injected into cJun, one site model

B1: HingeW (peptide)
peptide: MASLEQRAEELARENEELEKEAEELVVEEDVLEEEIEQLEERNYALRKEIEDLQKQLEKLGAPHHHHHH
notes: Recombinant, capped (MAS at the N-terminus, GAP at the C-terminus) and C-terminally 6xHis-tagged, 69 amino acids; also called peptide 1
Kd: 14.4 nM
TΔS (ITC): -9.37 kcal/mol
ΔG (ITC): -11 kcal/mol
ΔH (ITC): -20.4 kcal/mol

Source: patent US20250188151A1, “C-JUN ANTAGONIST PEPTIDES” (The University of Bath, priority 2022, published 2025)
